In the supplement of paper PMC10567573:
± gives the standard deviation.

Assay: protein stability index of a GFP-peptide fusion (GPS, HEK-293T) (PSI 1-6); higher = more stable
Conditions: c terminus: a fixed tail appended
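Also: 24-mer peptide tiles fused after GFP, lentivirally expressed, FACS-sorted into six equal bins by GFP/DsRed ratio, decoded by Illumina sequencing, PSI is the read-weighted mean bin number.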

Sequence | protein stability index (treatment: DMSO) | protein stability index (treatment: MLN4924 1 uM, 8 h)
KKAQGKTQQNRKLTDFYPVRRSSR [KMT5A] | 3.29 ± 0.54 | 3.86 ± 0.39
KKMEQNKTAATRYRQKKRAEQEAL [ATF4] | 4.48 ± 0.52 | 4.55 ± 0.33
KKRLQELALALKKCKPSLPAEAEG [TMEM120A] | 3.62 ± 0.48 | 3.34 ± 0.36
KKWQQYRSVRRERLKEMKLLRDQF [FAM9B] | 2.59 ± 0.27 | 2.71 ± 0.2
KLAQALHEMREQHDAQVRLYKEEL [LMNB1] | 2.66 ± 0.3 | 2.7 ± 0.22
KLQLQLNETKSQAFVSNSPKLFCP [PLD5] | 2.87 ± 0.075 | 2.95 ± 0.6
KNGRVDSEDRRSRHCPYLDTINRS [USP39] | 3.99 ± 0.26 | 4.2 ± 0.34
KNHEEEMLALRGQTGGDVNVEMDA [KRT16] | 5.46 ± 0.17 | 5.6 ± 0.22
KPARKRRRRSRKKPSGALGSESYK [EHMT1] | 5.11 ± 0.27 | 5.28 ± 0.14
KQQKDPSEEAAVLQYASLVGQKCS [ATE1] | 4.84 ± 0.23 | 4.77 ± 0.2
KRFQTLISKMEPLEIPVETITSEV [CRY1] | 3.27 ± 0.25 | 3.5 ± 0.39
KRIAHFDLKPENIMLLDKNVPNPR [DAPK3] | 3.68 ± 0.44 | 3.25 ± 0.77
KRPAPRTAPRQEKHERTHEIIPIN [SPRY1] | 4.03 ± 0.18 | 4.2 ± 0.15
KRRRKETSECPSDKDKSPESHKAK [C10orf62] | 5.34 ± 0.27 | 5.42 ± 0.21
KSEEELAECFRIFDRNADGYIDPE [TNNC2] | 4.8 ± 0.52 | 5.29 ± 0.43
KSFSMAKGLNARMMRGLSYSLTTS [RAB40A] | 2.35 ± 0.13 | 2.56 ± 0.25
KSPLHMTAVHGRFTRSQTLIQNGG [ANKRD44] | 3.28 ± 0.24 | 3.45 ± 0.18
KSRRSRSESETSTMAAKKNRQSSD [C18orf25] | 5.47 ± 0.15 | 5.53 ± 0.25
KTIDLGAAAHYTGDKASPDQNAST [CLINT1] | 5.26 ± 0.31 | 5.41 ± 0.49
KTKAPAPDEGSDLFYDDYYEDGEV [CDC34] | 5.35 ± 0.31 | 5.38 ± 0.29
KVLGNRWAEIAKMLPGRTDNAVKN [MYBL2] | 2.91 ± 0.45 | 2.98 ± 0.24
KVLILRNHGLVSVGESVEEAFYYI [ADD1] | 2.63 ± 0.53 | 2.72 ± 0.67
KYLKLQDTCRTQLVWLVRELVKSG [INTS3] | 2.94 ± 0.82 | 2.6 ± 0.83

Sequence | protein stability index (treatment: DMSO) | protein stability index (treatment: MLN4924 1 uM, 8 h)
LAAAPEGLEDAGLDPHFVPTELWP [TEX19] | 4.06 ± 0.11 | 4.19 ± 0.24
LAAKERHCGELKRRLGLSTLGELK [TPD52L2] | 2.85 ± 0.32 | 3.02 ± 0.33
LAGQFLEELRKFSSLCYKQRIKSQ [MOG] | 2.17 ± 0.27 | 2.14 ± 0.38
LALALKKCKPSLPAEAEGAAQELE [TMEM120A] | 4.39 ± 0.18 | 4.46 ± 0.19
LALCPANHAPLREQGAIPRLVQLL [CTNNB1] | 2.39 ± 0.21 | 2.59 ± 0.21
LAMLALLSPLSLAQYDSWPHYPEY [LOXL2] | 3.22 ± 0.32 | 3.46 ± 0.16
LASGLVVFFLFPHSVLVDDDGIKV [TMEM106C] | 2.92 ± 0.48 | 2.86 ± 0.49
LCAPEVISLINTRMLFWACSTNKP [FAF2] | 3.04 ± 0.47 | 2.88 ± 0.41
LCEEFRNRNQRIVQLIQDTRIHIL [CPN1] | 2.25 ± 0.13 | 2.4 ± 0.26
LCQKSNDISIHHFTCDEENVFAAV [WDR41] | 2.84 ± 0.18 | 2.91 ± 0.31
LCVILYKKVHKGTVPKNDADDESE [GLT8D2] | 2.02 ± 0.15 | 2.31 ± 0.1
LDEALKHVKETQPPETVQNWIELL [GOLPH3] | 3.94 ± 0.18 | 4.17 ± 0.24
LEDMGQPPAEEAEQPGALAREFLA [FKBP8] | 5.15 ± 0.19 | 5.38 ± 0.2
LELLDKIERSKIVSTMRCKTRQKS [PPEF2] | 3.54 ± 0.43 | 3.73 ± 0.074
LELTVRRVQGVLRGRAREREQLQA [HES6] | 3.7 ± 0.45 | 3.64 ± 0.43
LENSKYCRFNQDPEAVDEDRSTEP [ATE1] | 5.5 ± 0.24 | 5.29 ± 0.45
LFDLMRRMLEFDPAQRITLAEALL [CLK3] | 2.05 ± 0.6 | 2.19 ± 0.11
LFEEILSNSRQLKWLSCGFMLEIV [FBXO33] | 3.02 ± 0.69 | 2.79 ± 0.57
LGGFSHWGRLTSYSGGGYYLDLPG [PKD2L1] | 2.47 ± 0.19 | 2.74 ± 0.25
LGNVLFSPICLSTSLSLAQVGAKG [SERPINB5] | 2.48 ± 0.2 | 2.12 ± 0.23
LGPLLSEPLVLYNQNLSNRPSFNR [MYOZ1] | 2.62 ± 0.13 | 2.95 ± 0.49
LGSGPDRELRKPEEPENGEPTAAA [PWWP2B] | 5.52 ± 0.18 | 5.25 ± 0.47
LGSGQFAIVRKCRQKGTGKEYAAK [DAPK3] | 3.55 ± 0.52 | 3.48 ± 0.16

Sequence | protein stability index (treatment: DMSO) | protein stability index (treatment: MLN4924 1 uM, 8 h)
LGVAQRSLPLQDELAFAEDLVLDE [ESRRA] | 3.38 ± 0.65 | 3.93 ± 0.71
LHLPIMGVVMKVRIPTCHDKPGTT [DENND6A] | 2.24 ± 0.31 | 2.25 ± 0.19
LHSLPGVSLSLENRELWKEFSSVG [TBX6] | 2.73 ± 0.19 | 2.83 ± 0.37
LHVAARYGHELLINTLITSGADTA [ANKRD44] | 2.52 ± 0.28 | 2.44 ± 0.72
LIHVYLPLTSHILRAFVNSQIQGH [SNX8] | 3.2 ± 0.27 | 3.19 ± 0.52
LIISCRKLFYFKIWAFLDVSFVER [FBXO39] | 3.43 ± 0.47 | 2.9 ± 0.099
LINTIRVVCASYEDYGHWLLCLRA [PLEKHN1] | 2.76 ± 0.89 | 2.43 ± 0.41
LIRGSTFAKAKPEIPWTSLTRKGL [PHTF1] | 2.25 ± 0.17 | 2.41 ± 0.31
LISSGMSSHKQGHTSSEYDMLREM [TAF7L] | 3.75 ± 0.23 | 3.84 ± 0.19
LLAAQVQLQCSPAELQAELLHSQA [FBF1] | 2.56 ± 0.26 | 2.42 ± 0.45
LLHLHQTAHADEFDCPSELQHTQE [STEAP1] | 4.66 ± 0.11 | 4.78 ± 0.11
LLIEGRSVNEHTEEGESLLCLACS [ANKRD17] | 3.22 ± 0.6 | 3.27 ± 0.91
LLIPKEDGVITASEDRTIRVWLKR [WDFY1] | 2.42 ± 0.34 | 2.7 ± 0.51
LLLGAGESGKSTIVKQMKIIHEAG [GNAI1] | 2.51 ± 0.47 | 2.54 ± 0.65
LLMLENFIDGKFLPCSSYIDSYDP [ALDH8A1] | 1.97 ± 0.65 | 2.05 ± 0.56
LLPLTELSVCPLEGSREHAFQITG [PLEKHN1] | 2.88 ± 0.13 | 2.83 ± 0.24
LLPPGEPPLLGTFPRDHTSLALVQ [ANKRD40] | 3.48 ± 0.096 | 3.39 ± 0.31
LLSRINKDWLEGTVRGATGIFPLS [NCF4] | 2.17 ± 0.47 | 2.51 ± 0.74
LLSSGFEIDTPDKFGRTCLHAAAA [ANKRD44] | 2.95 ± 0.39 | 2.95 ± 0.035
LMDIVPADDHRYKFADNKWSVTGK [TBX5] | 3.63 ± 0.29 | 3.54 ± 0.15
LMDVTGGPFDLMSRRVIAANNRIL [IMPA1] | 2.75 ± 0.17 | 2.69 ± 0.2
LMYPSYTFSGDVQLAQDDIDGIQA [MMP1] | 4.1 ± 0.15 | 4.25 ± 0.25
LNVELDPEIQKVRAQEREQIKALN [KRT71] | 4.74 ± 0.13 | 4.75 ± 0.11

Sequence | protein stability index (treatment: DMSO) | protein stability index (treatment: MLN4924 1 uM, 8 h)
LPGAVATIVKPLSAIPQPTITKQE [HNF4A] | 4.51 ± 0.24 | 4.54 ± 0.17
LPLAYQQTSAFARQPRDELERVRV [TMEM175] | 4.01 ± 0.35 | 4.1 ± 0.27
LPPGFVLKKDKKKEEKEDEISLED [ZC3H15] | 5.54 ± 0.46 | 5.45 ± 0.36
LPRHQDQPHHQPPNRAGAPGESLE [TRAF3IP2] | 5.51 ± 0.2 | 5.43 ± 0.095
LPTVGGQLGTAGQGFSYSKSNGRG [MYOZ1] | 4.3 ± 0.21 | 4.4 ± 0.35
LPYTDGLSWELLDSHLGGNARGMG [CTBP1-DT] | 2.98 ± 0.28 | 3.29 ± 0.14
LQGAASHVPEGFDPTGPAGLGRPT [EHMT1] | 4.54 ± 0.2 | 4.58 ± 0.14
LQGVPERLLGTAGTEEKKKLIRDF [VTI1B] | 4.25 ± 0.44 | 4.63 ± 0.2
LQLLLGCKARMERDGYGMTPLLAA [FEM1A] | 2.38 ± 0.5 | 2.24 ± 0.29
LQNKVPLLGSSTACIVVLDRTSHR [PPTC7] | 2.14 ± 0.16 | 2.32 ± 0.33
LQRDFLKQRPTKLKSLIRLVKHWY [OAS1] | 3.3 ± 0.41 | 3.15 ± 0.23
LRDRAERIASRAIDNAADLLIFGK [SNX8] | 3.28 ± 0.17 | 3.6 ± 0.31
LRFTSGLVVALDVDATLEHVQDPQ [INTS4] | 2.09 ± 0.25 | 2.43 ± 0.22
LRGQVGGEINVEMDAAPGVDLSRI [KRT17] | 3.97 ± 0.15 | 3.92 ± 0.16
LRLHDNPALKECIQGADTIRCVYI [CRY1] | 2.6 ± 0.38 | 2.41 ± 0.3
LRRPRPVQRTQSVPVRRPARRRQS [RASAL3] | 4.99 ± 0.29 | 5.19 ± 0.35
LRSFCAWQRGLNTPEDSDPDHFDT [ADAMTS4] | 4.12 ± 0.27 | 4.24 ± 0.2
LSALDSKANNLSSLSKKYRQDAKY [SEC22B] | 3.87 ± 0.19 | 3.98 ± 0.3
LSETADPFFVLNSDVICDFPFQAM [GMPPB] | 2.44 ± 0.26 | 2.6 ± 0.35
LSLFIPESPRWLYSQGRLSEAEEA [SLC22A15] | 3.19 ± 0.35 | 3.44 ± 0.35
